The target in assay [1] is T1, His9-hMSR1 (human MSR1 extracellular domain) (Homo sapiens, UniProt P21757).
T1 construct: human MSR1 extracellular domain expressed with a N-terminal nonahistidine tag; His9 (nonahistidine) (N); purchased R&D Systems 2708-MS
T1 sequence (P21757 77-451 limits assumed): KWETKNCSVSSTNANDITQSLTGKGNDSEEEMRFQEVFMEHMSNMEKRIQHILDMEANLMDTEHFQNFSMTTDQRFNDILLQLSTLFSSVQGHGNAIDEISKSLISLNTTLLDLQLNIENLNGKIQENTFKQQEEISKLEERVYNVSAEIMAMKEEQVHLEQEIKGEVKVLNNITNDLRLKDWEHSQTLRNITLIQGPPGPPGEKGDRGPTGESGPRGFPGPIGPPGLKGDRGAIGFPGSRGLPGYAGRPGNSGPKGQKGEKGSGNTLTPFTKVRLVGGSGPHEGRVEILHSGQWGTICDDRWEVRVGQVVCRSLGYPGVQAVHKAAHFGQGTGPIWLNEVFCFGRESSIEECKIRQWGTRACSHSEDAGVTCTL
The assay is described as follows: Biacore T200 surface plasmon resonance binding kinetics of anti-MSR1 antibody-drug conjugates and parental antibodies. The conditions noted are these: 25° C. In a few lines: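 Anti-MSR1 mAbs (ADCs with LXR or steroid linker-payloads, and unconjugated parents) captured on anti-human Fcγ surface; His9-tagged human MSR1 extracellular domain as analyte in HBS-ET, pH 7.4, 25° C. ka and kd from 1:1 fit with mass transport limitation; KD and t½ calculated from kinetic rates.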
(In SPR one partner is held on a chip, and binding of the other changes the refractive index at the surface.)

In assay [2] the test system is B16F10.9 cells (MSR1 negative). The assay can be described thus: Flow cytometry binding, MSR1 negative cells. It counts as cell-based, mouse. The conditions noted are these: 10 μg/mL antibody. As for the experimental part:
Relative cell surface binding of the anti-MSR1 antibodies to mouse MSR1 expressing cells was determined by flow cytometry using MSR1 positive RAW264.7 cells (ATCC, Catalog #TIB-71) and MSR1 negative B16F10.9 cells (Lin et al. 1998. PNAS 95:8829-8834). For the assay, cells were plated in PBS without calcium and magnesium (VWR Cat #45000-446) and 2% FBS (Saradigm Cat #1500-500) (Staining Buffer) in 96 well V-bottom plates (Axygen Scientific, Cat #P-96-450-V-C-S). To block binding to Fc receptors, RAW264.7 cells were incubated for 30 minutes at 4° C. with 500 μg/mL mouse IgG (Jackson ImmunoResearch, Cat #015-000-003) diluted in staining buffer, while B16F10.9 cells remained in staining buffer. Following Fc receptor blocking, 10 μg/mL of anti-MSR1 antibodies or an isotype control antibody were added to the cells and were subsequently incubated for 30 minutes on ice. For a positive control, a commercial anti-mouse MSR1 (Sino Biological, Cat #50129-R004) antibody was used, while a rabbit IgG antibody (Thermo Scientific, Cat #26102) was used as a negative control. […] Cells were subsequently washed and fixed using a 50% solution of Cytofix (BD Biosciences, Cat #554655) diluted in PBS. […] The signal to noise (S/N) was determined by calculating the ratio of the anti-MSR1 antibodies or the control antibodies MFI to the unstained sample MFI (Table 11).
For orientation: In flow cytometry, cells or beads pass a laser one at a time.

Assay [3] addresses T2, PMA-treated THP-1 cells (endogenously expressed human MSR1) (Homo sapiens, UniProt P21757).
T2 construct: endogenous in cells; host or cells: THP-1 cells differentiated with PMA
T2 sequence (P21757 1-451): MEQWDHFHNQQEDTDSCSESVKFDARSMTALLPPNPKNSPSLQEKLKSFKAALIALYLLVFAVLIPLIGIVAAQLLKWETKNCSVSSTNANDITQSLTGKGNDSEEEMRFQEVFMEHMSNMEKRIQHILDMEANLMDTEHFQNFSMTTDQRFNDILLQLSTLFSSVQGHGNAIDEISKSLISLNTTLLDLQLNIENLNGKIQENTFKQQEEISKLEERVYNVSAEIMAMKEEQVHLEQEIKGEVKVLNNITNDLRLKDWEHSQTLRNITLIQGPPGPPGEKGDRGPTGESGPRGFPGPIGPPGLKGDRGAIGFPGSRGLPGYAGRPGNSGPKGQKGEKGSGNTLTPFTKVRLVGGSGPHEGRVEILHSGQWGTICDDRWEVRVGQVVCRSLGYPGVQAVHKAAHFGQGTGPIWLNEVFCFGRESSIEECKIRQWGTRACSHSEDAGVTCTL
The assay is described as follows: Electrochemiluminescence antibody binding assay on MSR1-expressing cells. Format: cell-based.

Assay [4] deals with HMM-mfMSR1 (monkey MSR1 extracellular domain). The assay is described as follows: Biacore surface plasmon resonance binding kinetics of anti-MSR1 mAbs, antibody-capture format. The conditions noted are these: analyte HMM-mfMSR1, NB = no binding observed; for kd: * = no dissociation observed, kd manually fixed at 1.00E−05; for ka: antibody-capture format. In short, it runs like this: (§1)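 Captured anti-MSR1 antibodies were run against MSR1 reagents by SPR in HBS-ET (pH 7.4) at 25 °C and 37 °C. ka and kd came from fitting sensorgrams to a 1:1 model with mass-transport limitation. KD and t½ were calculated from these rates.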

Assay [5] addresses T1, His9-hMSR1 (human MSR1 extracellular domain). The description is as above. The conditions noted are these: analyte His9-hMSR1, NB = no binding observed; for kd: * = no dissociation observed, kd manually fixed at 1.00E−05; for ka: antibody-capture format. In short, it runs like this: as §1

Chain of HMM-mfMSR1 (monkey MSR1 extracellular domain) (as listed by the source): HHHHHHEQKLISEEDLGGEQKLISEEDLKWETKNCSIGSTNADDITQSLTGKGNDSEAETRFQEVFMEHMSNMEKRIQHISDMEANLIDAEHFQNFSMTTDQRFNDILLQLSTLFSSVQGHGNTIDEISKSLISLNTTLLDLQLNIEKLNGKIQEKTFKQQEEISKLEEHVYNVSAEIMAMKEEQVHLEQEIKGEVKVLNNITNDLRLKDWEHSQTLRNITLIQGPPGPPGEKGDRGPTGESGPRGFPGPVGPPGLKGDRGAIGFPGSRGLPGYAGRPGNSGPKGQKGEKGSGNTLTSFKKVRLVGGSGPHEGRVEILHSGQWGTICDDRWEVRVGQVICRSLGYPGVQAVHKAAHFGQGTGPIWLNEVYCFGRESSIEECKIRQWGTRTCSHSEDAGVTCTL

B1: H1H27754P-N297Q: one of "Twelve anti-MSR1 antibodies"; "made with an N297Q single point mutation in human Fcγ portion" (antibody, V domains shown)
VH: EVQLVESGGGLVQPGGSLRLSCAASGFTFRTYAMTWVRQAPGKGLDWVSAITGDGGNTYYADSVKGRFTISRDNSKNTLYLQMNSLRAEDTAIYYCAKDQRFSFALYYFDYWGQGTLVTVSS
VL: DIQMTQSPSSVSASVGDRVTITCRASQGISSWLAWYQQKPGNAPKLLIYAAFSLQSGVPSRFSGSGSGTDFTLTISSLQPEDFATYYCQQANNFPWTFGQGTKVEIKR
For B1, the ka in assay [1] (Table 19, antibody-LXR ADCs and unconjugated antibodies) turned out to be 200000 M⁻¹ s⁻¹; in assay [4] (25° C.) it was 235000 M⁻¹ s⁻¹; in assay [4] (37° C.) it was 701000 M⁻¹ s⁻¹; in assay [5] (25° C.), 290000 M⁻¹ s⁻¹; in assay [5] (37° C.), 663000 M⁻¹ s⁻¹. Further, the kd in assay [1] (Table 19, * = no dissociation observed, kd manually fixed at 1.00E−05) was 1.00E−05* s^−1; in assay [4] (25° C.) it was 1.76e-05 s⁻¹; in assay [4] (37° C.), 3.53e-05 s⁻¹; in assay [5] (25° C.) it was 1.00E−05* s^−1; in assay [5] (37° C.), 2.53e-05 s⁻¹. Further, the “B16F10.9 MFI” value in assay [2] was 4091. Also, in assay [3], the “Ratio of 11 nM Antibody Binding Signal (RLU) to isotype control, PMA-treated THP-1” value was determined as 66.

For the origin of these results see patent US12497460B2, “Anti-MSR1 antibodies and methods of use thereof” (REGENERON PHARMACEUTICALS, INC., priority 2018, dated 2025).
